# Reference: paper PMC9056652
# T1: wt-Obe (tag-free obelin) (UniProt Q27709 1-195)
# T1 sequence: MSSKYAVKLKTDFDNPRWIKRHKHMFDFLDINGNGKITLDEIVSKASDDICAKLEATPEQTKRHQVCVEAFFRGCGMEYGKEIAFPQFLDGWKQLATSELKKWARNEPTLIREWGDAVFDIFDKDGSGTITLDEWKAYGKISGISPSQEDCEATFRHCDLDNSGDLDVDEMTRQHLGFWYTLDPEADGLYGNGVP
# Columns and labels:
# wt-Obe (tag-free obelin) [1] = biological target: T1, wt-Obe (tag-free obelin); test: DRaCALA
# wt-Obe (tag-free obelin) [2] = biological target: T1, wt-Obe (tag-free obelin); test: solid-phase bioluminescent assay
Binder,Kd (wt-Obe (tag-free obelin) [1]) [nM],binding result (wt-Obe (tag-free obelin) [1]),further results
"O79t (structured_RNA, 2'-F on all C and U) RNA: GGGAGACAAGAAUAAACGCUCAAUGUGAAGUCGCAUUUAAUUGCUGGCGCCGUUUACUUGCUC",720,,
"O3t (structured_RNA, 2'-F on all C and U) RNA: GGGAGACAAGAAUAAACGCUCAAUGUGAAGUCGCACUUAGUUGCUGGCGUCGUUUACUUGCUC",1370,,
"O6t (structured_RNA, 2'-F on all C and U) RNA: GGGAGACAAGAAUAAACGCUCAAGACGUGCGCGGGAAAGACCGACGCUCUACCCCUACAAGCU",,no binding,
"O35 (structured_RNA, 2'-F on all C and U) RNA: GGGAGACAAGAAUAAACGCUCAAUAGGGUACGCGGACAGCGAUGGGACCGCGUUGCCAGCCCCUUCGACAGGAGGCUCACAACAGGC",,no binding,
"O4t (structured_RNA, 2'-F on all C and U) RNA: GGGAGACAAGAAUAAACGCUCAACUAGGCUGUGCGCGGUGCCCUAUCUUAUCCGCGCCUCUCCU",,no binding,
"O79 (structured_RNA, 2'-F on all C and U) RNA: GGGAGACAAGAAUAAACGCUCAAUGUGAAGUCGCAUUUAAUUGCUGGCGCCGUUUACUUGCUCUUCGACAGGAGGCUCACAACAGGC",690,,
"O5 (structured_RNA, 2'-F on all C and U) RNA: GGGAGACAAGAAUAAACGCUCAAGUUGUACGCGGUUGGCAAUCCGCGUUGCUUUACGGGUUCCUUCGACAGGAGGCUCACAACAGGC",,,binding result (wt-Obe (tag-free obelin) [2]): binds
